# Patent publication US8304519B2, “Compositions and methods for modulating dopamine neurotransmission” (Centre for Addiction and Mental Health, priority 2005, dated 2012)
# Legend:
# [1] = biological target: T1, D2-DAT direct interaction (Homo sapiens, UniProt P14416); test: In vitro binding assay, blockade of GST-DAT[NT1] binding to [35S]-D2[IL3-2] by peptides; conditions: co-incubation with purified peptide
# T1 construct: made in house; host or cells: bacteria (GST fusion, pGEX4T-3)
# T1 sequence (P14416 271-373): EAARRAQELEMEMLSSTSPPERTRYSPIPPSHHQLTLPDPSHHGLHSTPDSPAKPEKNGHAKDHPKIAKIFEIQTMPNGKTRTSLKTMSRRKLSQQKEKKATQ
# Experimental: (§1) Glutathione beads carrying GST fusion proteins (DAT[NT1] (SEQ ID NO:7), DAT[NT2] (SEQ ID NO:9), DAT[NT3] (SEQ ID NO: 10)) or GST (10-20 μg each) alone was incubated with [35S]-methionine-labelled D2[IL3-2] probe (SEQ ID NO:3) respectively. The beads were then washed 4-6 times with PBS containing 0.5% Triton X-100 and eluted with 10 mM glutathione elution buffer. Eluates were separated by SDS-PAGE and visualized by autoradiography.
# [35S]-D2[IL3-2] = biological target: T2, [35S]-D2[IL3-2] (Homo sapiens, UniProt P14416); test: In vitro binding assay of GST-DAT fusion proteins with [35S]-D2[IL3-2] probe; conditions: autoradiography
# T2 construct: made in house
# T2 sequence (P14416 271-373): T1 sequence (P14416 271-373)
# Experimental: as §1
# D2-DAT coupling = biological target: T3, D2-DAT coupling (Homo sapiens, UniProt P14416); test: [3H]DA uptake in rat midbrain primary cultures infected with DAT and D2 adenovirus; type: cell-based; conditions: 10 μM for 30 minutes, cultured neurons
# T3 construct: expressed in transfected cells; host or cells: primary rat midbrain neuronal cultures, adenoviral infection
# Experimental: Measurement of DA uptake was performed on intact cells as previously described (30). Briefly, 2-4 days following transfection in 24-well plates (˜2×10^5 cells seeded per well) medium was removed and wells were rinsed with 0.5 mL of uptake buffer (5 mM Tris, 7.5 mM HEPES, 120 mM NaCl, 5.4 mM KCl, 1.2 mM CaCl2, 1.2 mM MgSO4, 1 mM ascorbic acid, 5 mM glucose, pH 7.1). […] (final concentration) and incubated for 10 min at room temperature in a total volume of 0.5 mL. Nonspecific [3H] DA (37-53 Ci/mmol) uptake was defined in the presence of 10 μM mazindol. Wells were rinsed twice with 0.5 mL of uptake buffer and cells were solubilized in 0.5 mL of 1% SDS and collected to measure incorporated radioactivity using a Beckman liquid scintillation counter (LS 6000SC).
# Midbrain cultures from postnatal day 2 rats are prepared by dissection of ventrolateral sections of the mesencephalon (avoiding medial tissue regions) in ice-cold HBSS. Tissue is placed in cold neurobasal/B27 medium (Invitrogen) supplemented with 0.5 mM L-glutamine, and 10 ng/mL bFGF (culture medium). […] The single cell suspensions are counted with a hemocytometer for plating at desired densities onto poly-D-Lysine (100 ug/mL) coated tissue culture plates of varying formats or, onto coated glass cover-slips for microscopy. […]
# [2] = Amphetamine-induced hyper-locomotor activity; type: in vivo; conditions: ip injection, 3 nmol/g
# Experimental: Tests of locomotor activity were conducted in four clear Plexiglas activity chambers (Med Associates Inc., St Albans, Vt.) measuring 43 cm long, 43 cm wide, and 30 cm high. An array of 16×16 photodetectors, spaced 2.5 cm apart, and positioned 2.5 cm above the floor of the chamber was used to detect horizontal locomotor activity as distance traveled. Prior to testing, all mice were first habituated to the apparatus by placing them in the activity chambers for 1 h on three consecutive days. On test days, mice were placed in the activity chamber for 1 h prior to receiving an IP injection of TAT (SEQ ID NO:14), TAT-DAT[NT1-1] (SEQ ID NO:12), or TAT-DAT[NT1-2] peptide (SEQ ID NO: 13). Locomotor activity was then measured for the next 180 min.
# [3] = systemically injected; cited from earlier work
# D2 receptor [4] = biological target: T4, D2 receptor (Homo sapiens, UniProt P14416); test: cAMP accumulation in cells co-expressing D2 with DAT; type: cell-based; set-up: expressed in transfected cells; host or cells: HEK-293 cells co-expressing D2 and DAT; conditions: data not shown
# D2 receptor [5] = biological target: T4, D2 receptor; test: Cell-ELISA of DAT membrane expression on D2 activation in cultured midbrain neurons; type: cell-based, rat; set-up: expressed in transfected cells; host or cells: primary rat midbrain neuronal cultures, adenoviral infection; conditions: cultured midbrain neurons infected with D2 and DAT adenoviruses
# Experimental: Cell-ELISA assays (colorimetric assays) were done essentially as previously described (Lee et al., 2002a). Neurons or HEK-293T cells were transiently transfected with the indicated cDNA constructs by the Lipofectamine 2000 (InVitrogen) method (6-10 μg of each indicated cDNA per 7.5×10^6 cells), and equally distributed to two 6-well plates (35 mm/well), and grown for 2-4 days. The same density of co-transfected cells were fixed in 4% paraformaldehyde for 10 min in the absence (non-permeabilized conditions) or the presence (permeabilized conditions) of 1% Triton X-100. Cells were incubated with DAT antibody against the extracellular loop (Chemicon) for the purpose of labeling the proteins on the cell surface under non-permeabilized conditions or the entire transporter pool under permeabilized conditions. […] The cell surface expression of DAT was presented as the ratio of colorimetric readings under non-permeabilized conditions to those under permeabilized conditions. […]
# (§2) Midbrain cultures from postnatal day 2 rats are prepared by dissection of ventrolateral sections of the mesencephalon (avoiding medial tissue regions) in ice-cold HBSS. […] The single cell suspensions are counted with a hemocytometer for plating at desired densities onto poly-D-Lysine (100 ug/mL) coated tissue culture plates of varying formats or, onto coated glass cover-slips for microscopy. […]
# D2 receptor [6] = biological target: T4, D2 receptor; test: DA uptake on D2 activation in cultured midbrain neurons infected with D2 and DAT adenoviruses; type: cell-based, rat; set-up: expressed in transfected cells; host or cells: primary rat midbrain neuronal cultures, adenoviral infection
# Experimental: Measurement of DA uptake was performed on intact cells as previously described (30). Briefly, 2-4 days following transfection in 24-well plates (˜2×10^5 cells seeded per well) medium was removed and wells were rinsed with 0.5 mL of uptake buffer (5 mM Tris, 7.5 mM HEPES, 120 mM NaCl, 5.4 mM KCl, 1.2 mM CaCl2, 1.2 mM MgSO4, 1 mM ascorbic acid, 5 mM glucose, pH 7.1). Cells were then preincubated in duplicate with the indicated concentrations of dopaminergic agents (10^−13 to 10^−4 M) 5 min prior to the addition of 0.25 mL of 20 nM [3H]DA (final concentration) and incubated for 10 min at room temperature in a total volume of 0.5 mL. Nonspecific [3H] DA (37-53 Ci/mmol) uptake was defined in the presence of 10 μM mazindol. Wells were rinsed twice with 0.5 mL of uptake buffer and cells were solubilized in 0.5 mL of 1% SDS and collected to measure incorporated radioactivity using a Beckman liquid scintillation counter (LS 6000SC).
# as §2
# D2 receptor [7] = biological target: T4, D2 receptor; type: cell-based; set-up: expressed in transfected cells; host or cells: HEK-293 cells co-expressing D2 and DAT; conditions: pre-incubation 150-200 ng/ml, HEK-293 cells co-expressing D2 and DAT
# Experimental: Measurement of DA uptake was performed on intact cells as previously described (30). Briefly, 2-4 days following transfection in 24-well plates (˜2×10^5 cells seeded per well) medium was removed and wells were rinsed with 0.5 mL of uptake buffer (5 mM Tris, 7.5 mM HEPES, 120 mM NaCl, 5.4 mM KCl, 1.2 mM CaCl2, 1.2 mM MgSO4, 1 mM ascorbic acid, 5 mM glucose, pH 7.1). […] Wells were rinsed twice with 0.5 mL of uptake buffer and cells were solubilized in 0.5 mL of 1% SDS and collected to measure incorporated radioactivity using a Beckman liquid scintillation counter (LS 6000SC).
# T4 sequence (P14416 1-414 isoform P14416-2): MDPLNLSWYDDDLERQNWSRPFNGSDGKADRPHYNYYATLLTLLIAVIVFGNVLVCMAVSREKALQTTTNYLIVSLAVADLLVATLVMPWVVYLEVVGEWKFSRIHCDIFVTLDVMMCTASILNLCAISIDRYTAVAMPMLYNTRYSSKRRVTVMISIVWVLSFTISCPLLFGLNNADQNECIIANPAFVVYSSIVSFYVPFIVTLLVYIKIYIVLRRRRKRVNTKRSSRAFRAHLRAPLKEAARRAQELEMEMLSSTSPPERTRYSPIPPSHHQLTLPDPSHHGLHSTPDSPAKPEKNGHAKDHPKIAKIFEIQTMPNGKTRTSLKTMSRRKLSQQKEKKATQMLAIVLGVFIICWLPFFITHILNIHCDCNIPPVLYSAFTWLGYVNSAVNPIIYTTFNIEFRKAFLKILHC
# T3 sequence (P14416 1-414 isoform P14416-2): as above
substance,measurement,setting,value
"DAT[NT1-1] (M1-V15) peptide: purified peptide DAT M1-V15, MSKSKCSVGLMSSVV (SEQ ID NO:2) (Human dopamine transporter protein (DAT[NT1-1] M1-V15))",disruption of the interaction between [35S]-D2[IL3-2] and GST fused DAT[NT1],[1],disrupted
"GST fused DAT[NT1]: GST fusion protein encoding DAT M1-P26, MSKSKCSVGLMSSVVAPAKEPNAVGP (SEQ ID NO:7)",hybridization (direct binding) with [35S]-D2[IL3-2],[35S]-D2[IL3-2],hybridized
TAT-DAT[NT1-2] peptide: DAT[NT1-2] (A16-P26) peptide fused to HIV-1 TAT cell-membrane transduction domain (SEQ ID NO:13) (YGRKKRRQRRRAPAKEPNAVGP; HIV virus type 1 TAT protein fused to human dopamine transporter protein (TAT-DAT[NT1-2])),DAT-mediated DA uptake,D2-DAT coupling,did not produce any effects
same,behavioural effects of amphetamine (hyper-locomotor activity),[2],reduce
Tyr-Gly-Arg-Lys-Lys-Arg-Arg-Gln-Arg-Arg-Arg [TAT peptide],time after IP injection at which the blood-brain barrier is penetrated,[3],1 h
pertussis toxin (PTX),functional block of the ability of the D2 receptor to inhibit cAMP accumulation,D2 receptor [4],confirmed
same,blockade of inhibition of DAT membrane expression by activation of D2 receptor,D2 receptor [5],blocked
same,blockade of inhibition of DAT-mediated DA uptake by activation of D2 receptor,D2 receptor [6],blocked
same,blockade of quinpirole-induced decrease in DAT-mediated DA uptake,D2 receptor [7],blocked
